Biological target: human PD-L1 on stably transfected cell line HEK293T/hPD-L1 (human, UniProt Q9NZQ7 19-290)
Assay: FACS blocking of human PD-1/PD-L1 binding

Sequence of human PD-L1 on stably transfected cell line HEK293T/hPD-L1 (Q9NZQ7 19-290): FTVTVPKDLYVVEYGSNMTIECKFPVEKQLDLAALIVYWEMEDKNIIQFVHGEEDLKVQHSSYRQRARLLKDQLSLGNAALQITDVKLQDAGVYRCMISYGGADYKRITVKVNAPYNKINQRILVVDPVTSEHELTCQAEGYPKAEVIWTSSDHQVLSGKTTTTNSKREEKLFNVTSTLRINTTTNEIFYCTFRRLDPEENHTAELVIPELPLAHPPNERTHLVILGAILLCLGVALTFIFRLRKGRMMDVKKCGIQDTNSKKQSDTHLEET

Binder	IC50 [µg/mL]
h_Nb1 (expressed from pFUSE-hIgG1-Fc) (Fc fusion) DVQLQESGGGLVQPGGSLRLSCAASGFTFSSYAMSWVRQAPGKGLEWVSDINSGGDNTDYADSVKGRFTISRDNAKNTLYLQMNSLKPEDTAVYYCARGPKLCFSSWGQGTQVTVSS	0.751
h_Nb2 (expressed from pFUSE-hIgG1-Fc) (Fc fusion) DVQLQESGGGLVQPGGSLRLSCAASGFTFGDRWMYWLRQAPGKGLEWVSSINPAGRSTYYADSVKGRFTISRDNAKNTLYLQMNSLKSEDTAVYYCTKDPGGYQKGQGTQVTVSS	0.106

From US20250197503A1 (published 2025)
